Laboratory results published in patent US20200031893.

Experiments:
[1] = test system: proNGF mutant SP174-101 (protease cleavage site mutated to VSAR)
Chain of proNGF mutant SP174-101 (protease cleavage site mutated to VSAR) (chain, as listed by the source mutant): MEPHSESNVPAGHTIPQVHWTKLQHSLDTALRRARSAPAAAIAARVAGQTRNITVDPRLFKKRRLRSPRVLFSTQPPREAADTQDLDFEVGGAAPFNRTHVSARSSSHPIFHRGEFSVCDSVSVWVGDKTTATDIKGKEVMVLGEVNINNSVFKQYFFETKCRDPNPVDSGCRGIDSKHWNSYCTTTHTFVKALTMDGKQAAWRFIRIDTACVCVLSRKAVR

## Trypsin (Roche, GMP grade)
Human wild-type proNGF
  % ProNGF remaining after tryptic digestion, Trypsin/ProNGF ratio 1/250 (HPLC-UV): 0%
  % ProNGF remaining after tryptic digestion, Trypsin/ProNGF ratio 1/1000 (HPLC-UV): 0%
  % ProNGF remaining after tryptic digestion, Trypsin/ProNGF ratio 1/5000 (HPLC-UV): 21.5%
  % ProNGF remaining after tryptic digestion, Trypsin/ProNGF ratio 1/10000 (HPLC-UV): 67.1%
  % betaNGF (cleavage yield) after tryptic digestion, Trypsin/ProNGF ratio 1/250 (HPLC-UV): 67.9%
  % betaNGF (cleavage yield) after tryptic digestion, Trypsin/ProNGF ratio 1/1000 (HPLC-UV): 77.9%
  % betaNGF (cleavage yield) after tryptic digestion, Trypsin/ProNGF ratio 1/5000 (HPLC-UV): 18.6%
  % betaNGF (cleavage yield) after tryptic digestion, Trypsin/ProNGF ratio 1/10000 (HPLC-UV): 4.6%
  % betaNGF Overdigested Forms after tryptic digestion, Trypsin/ProNGF ratio 1/250 (HPLC-UV): 25.7%
  % betaNGF Overdigested Forms after tryptic digestion, Trypsin/ProNGF ratio 1/1000 (HPLC-UV): 12.9%
  % betaNGF Overdigested Forms after tryptic digestion, Trypsin/ProNGF ratio 1/5000 (HPLC-UV): 6.6%
[1]
  % ProNGF remaining after tryptic digestion, Trypsin/ProNGF ratio 1/10000 (HPLC-UV): 1.9%
  % betaNGF (cleavage yield) after tryptic digestion, Trypsin/ProNGF ratio 1/10000 (HPLC-UV): 84.5%
  tryptic digestion, trypsin:proNGF 1:10,000 (w/w), 18 h, room temperature, SDS-PAGE: A complete digestion of proNGF mutant to beta-NGF could be observed
